Biological target: Dfd (Deformed);Exd (Extradenticle) (Drosophila melanogaster?;Drosophila melanogaster?) (UniProt P07548+P40427)
Assay: EMSA
Conditions: class 2 site printed as 9.1 mM in same passage; assay source not fully shown; 20 mM HEPES pH 7.9, 1.4 mM MgCl2, 1 mM ZnSO4, 40 mM KCl, 0.1 mM EGTA, 5% glycerol, 10 mM DTT, 0.1% NP40, 200 ng poly(dI-dC), 3 ug BSA, 2 pmol Cy5 dsDNA in …

Dfd (Deformed);Exd (Extradenticle) (Drosophila melanogaster?;Drosophila melanogaster?), sequence (P07548 whole entry, chain 1 of 2): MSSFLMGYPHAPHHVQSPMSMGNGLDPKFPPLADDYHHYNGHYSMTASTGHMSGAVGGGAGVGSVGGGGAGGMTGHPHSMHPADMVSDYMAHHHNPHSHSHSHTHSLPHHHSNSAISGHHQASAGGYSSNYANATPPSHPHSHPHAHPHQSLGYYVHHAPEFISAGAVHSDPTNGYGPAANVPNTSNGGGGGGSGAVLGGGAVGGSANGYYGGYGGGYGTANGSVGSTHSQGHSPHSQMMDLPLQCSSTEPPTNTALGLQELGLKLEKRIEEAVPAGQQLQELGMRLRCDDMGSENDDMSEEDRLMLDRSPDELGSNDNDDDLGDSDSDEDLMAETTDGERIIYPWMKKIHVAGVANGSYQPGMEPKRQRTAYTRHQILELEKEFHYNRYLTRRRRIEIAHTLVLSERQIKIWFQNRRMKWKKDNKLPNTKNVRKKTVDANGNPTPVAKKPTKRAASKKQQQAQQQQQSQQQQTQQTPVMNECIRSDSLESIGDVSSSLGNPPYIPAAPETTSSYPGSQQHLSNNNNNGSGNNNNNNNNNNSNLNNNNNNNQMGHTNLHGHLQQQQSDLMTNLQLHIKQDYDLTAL
Dfd (Deformed);Exd (Extradenticle) (Drosophila melanogaster?;Drosophila melanogaster?), sequence (P40427 whole entry, chain 2 of 2): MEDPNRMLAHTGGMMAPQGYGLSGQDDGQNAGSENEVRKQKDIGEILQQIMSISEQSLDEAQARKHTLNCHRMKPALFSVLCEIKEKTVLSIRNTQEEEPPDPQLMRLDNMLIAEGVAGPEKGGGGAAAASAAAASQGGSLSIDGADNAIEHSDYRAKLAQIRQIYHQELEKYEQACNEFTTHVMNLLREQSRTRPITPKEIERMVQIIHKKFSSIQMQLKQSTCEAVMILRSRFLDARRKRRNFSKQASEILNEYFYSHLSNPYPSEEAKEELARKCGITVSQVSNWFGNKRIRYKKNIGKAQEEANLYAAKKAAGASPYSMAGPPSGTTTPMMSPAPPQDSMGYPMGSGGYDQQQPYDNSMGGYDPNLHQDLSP

modC enhancer site I
Kd (mM (so in the source); probably nM)): 5.5

Source: PMC9418327
